Experiments:
[1] = target: soluble DR 2a (DRB5*0101) molecules isolated from L cells transfectant L416.3 (human) (UniProt P01903)
[2] = target: soluble DR4 (DRB1*0401) class II molecules purified from BSM or PREISS EBV-B cells (human) (UniProt P01903); assay: peptide competition ELISA, soluble DR 4, biotinylated indicator UD4
[3] = target: soluble DR 1 (DRB1*0101) class II molecules purified from HOM-2 EBV-B cells (human) (UniProt P01903); assay: peptide competition ELISA, soluble DR 1, biotinylated indicator GFK(A)7
[4] = target: soluble DR 8 (DRB1*0801) class II molecules purified from BM9 EBV-B cells (human) (UniProt P01903); assay: peptide competition ELISA, soluble DR 8, biotinylated indicator GYR(A)6L
[5] = target: soluble DR 11 (DRB1*1101) class II molecules purified from SWEIG EBV-B cells (human) (UniProt P01903); assay: peptide competition ELISA, soluble DR 11, biotinylated indicator TT831-843
[6] = target: soluble DR 7 (DRB1*0701) class II molecules purified from EKR EBV-B cells (human) (UniProt P01903); assay: peptide competition ELISA, soluble DR 7, biotinylated indicator GFK(A)7, pH 5

Q: With “HA307-319 peptide derived from influenza hemagglutinin” as the substance, how does the IC50 [1] read?
A: Its IC50 is 30 nM.

Q: And the IC50 [2]?
A: The IC50 was 1000 nM.

Q: And the IC50 [3]?
A: Its IC50 is 100 nM.

Q: What about the IC50 [4] of the same substance?
A: Its IC50 is 5000 nM.

Q: And the IC50 [5]?
A: The IC50 was 1000 nM.

Q: What about the IC50 [6] of the same substance?
A: Its IC50 is 100 nM.

From US20050249750A1
